Test results reported in the nanobody polyreactivity screen of Harvey et al. (2022).

Assay: yeast display, Sf9 membrane polyspecificity reagent, FACS + sequencing; frameworks hold sequencing errors
Procedure, shortened: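 Polyreactivity labels are assigned by the sorting gate from which each nanobody was recovered. The gates were low and high (top ~1%), set on anti-HA fluorescence for expression and streptavidin fluorescence for reagent binding. Before sorting, galactose-induced (36–48 hours) yeast display cells were stained for 1 hour at 4 °C with 10% biotinylated, detergent-solubilized Sf9 membrane reagent.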

Sequence	polyreactivity (PSR sort gate)
QVQLVESGGGLVQAGGSRRLSCAASGRIFSQNTRGCYRQAPAKERELVAVISWRCGRTSYSDSVKGRFTISRDNSKNTVFLKMKSLKQEDTAVYYCAASAKLHYYRTYRYNYWGQGTQVTVSS	high polyreactivity
QVQLVESGGGLVQAGGSLRLSCAASGSTFARNVMGWYRHAPGKERELVAAITRSGGSTYYADSVKGRFTISRDNAKNTVYFQMNSLKPEDTAVYYCNRDFRGLAYSDRYDYWGQGTQVTVSS	low polyreactivity
QVQLVESGGGLVQAGGSLRLSCAASGFIFYRYAMGWSRQAPGKERELVAAISWGGGSTTYYADSVKGRFTISRDNAKNTVYLQMNSLKPEDTAVYYCAAYIGKGYGSEYYYWGQGTQVTVSS	low polyreactivity
QVQLVESGGGLVQAGGSLRLSCAASGGTFYHYAMGLYRQAPGKERALGAAIRSGARTNYADSVKGRFTISRDNAKNTVYLQMNSLYPEDTAAYSCAAARVRGYVRSGLDYWGQGTQVTVSS	high polyreactivity
QVQLVESGGGLVQAGGSLRLSCDASGFIFGYYAMGWYRHAPGKERELVAAISRGDTSTYYADSVKGRFTISRDNAKNTVYLQMYSLKPEDTAVYYCAADWTGYGYYYWGQGTQVTVSS	low polyreactivity
QVQHVESGGGIVQAGGSLRLSCAASGSTFWRNAMGWYRQAPGKEREFVASISWSGGGTYYADSVKGRFTISRDNEKNTVYLQMNSLKPEDTAVYYCAATPDWSYWYGNGDYDYWGQVTQVTVSS	low polyreactivity
QVQLVESGGGLVQAGGSLRLNCAASGITCEYYAMGWYREAPGKERDLVAAISWSGGSTYYADSVKGRFTNSRDNANNTVYLQINSLKTEDTAVYDFYAVGFTYLDLYGYWGQGTQLTVSS	high polyreactivity
QVQLVESGGGLVQAGGILRLSCASSRFTFTWYAMGWYRPAPGKERELVAAISLSGDRTYYADSVKGRFTISRDNAKNTVYLQMNSLKPEDTAVYYCVFAFEYYYWGQGTQVTVSS	low polyreactivity
QVQLVESGGGLVQAGGSLRLSCAASGFIFSSYAMGWYRQAPGKERELVASIRRRGGSTYYADSVKGRFTISRDNAKNTVYLQMNSLKPEDTAVYYCAASRVSYGTRFDYWGQGTQVTVSS	high polyreactivity
QVQLVESGAGLFQAGGSLRISCAASGLIFDGYAMGWYRQATGKERELVAAITRSGGSTSYADSVKARFTISRDNAKNTVYLHMNSLKPEDTAVYYCAAKVHTFYYHYYSWGQGTQVTVSS	high polyreactivity
QVQLVESGGGLVQAGGSLRLSCAASGSIFRYYAMGWYRQAPGKERELVAAITRRGGSTYYADSVKGRFTISRDNAKNTVYLQMNSLKPEDTAVYYCAASHGYQYEYWGQGTQVTVSS	high polyreactivity
QVQLVESGGGLVQAGGSLRLSCAASGSTSLGYAMGWYRQAPGKERELVASISWTGGGTYYADSVKGRFTLSRDNAKNTVYLQMNSLKPDDTAVYYCAADLTGYHPYIYGYWGQGTQVTVSS	low polyreactivity
QVQLVESGGGLVQAGGSLRLSCAASGRIFYYNAMGWYRQAPGKERELVAAITKSSGSTYYADSVKGRFTISRDNAKNTVFLQMNSLKPEDTAVYYCAKDKYLVFGFVGGDYWGQGTQVTVSS	low polyreactivity
QVQLVESGGGLVQAGGSLRLSCAASGYIFAYNTMGWYRQAPGKERELVAAISRSGGSTYYADSVKGRFTISRDNAKNTVYLQMNSLKPEDTAVYYCAARYAPLDFRFDYWGQGTQVTVSS	high polyreactivity
QVQLVESGGGLVQAGGSLRLSCAASGRIFPANDMGWYRQAPGKERELVASIRRGGITYADSVKGRFTISRDNAKNTVYLQMNSLKPEDNAVYYCNADYRGWGYHMDYWGQGTQVTVSS	low polyreactivity
QVQLVESGGGLVQAGGSLRLSCAASGSIFLDYAMGWYRQAPGKERELVAGITISGGSTYYADSVKGRFTISRDNAKNTVYLQMNSLKPEDTSVYYCAKVAPRSSSSQEYYYWGQGTQVTVSS	low polyreactivity
QVQLVESGGGLVQAGGSLRLSCAASGSIFFSNAMGWYRQAPGKERELVAAITSTGGSTYYADSVKGRFTISRDNAKNTVYLQMNSLKPEDTAVYYCAAASRRGYYYWGQGTQVTVSS	high polyreactivity
QVQLVESGGGLVQAGGSLRLSCAASGSTFGPYAMGWYRQAPGKERELVATITRNGGSTYYADSVKGRFTISRDNAKNTVYLQMNSLKPEDTAVYYCNAEGRWSSFTQRMDYWGQGTQVTVSS	low polyreactivity
QVQLVESGGGLVQAGGSLRLSCAASGSIFWTNAMGCYRQAPGKERELVASIHSSDASTDYADSVKGRFTISRDNEKNTVYLQMNSLKPEDTAVYYCNAAGAYPYYSEDYYWGQGSQVTVSS	low polyreactivity
QVQLVESGGGLVQAGGSLRLSCAASGSIFASYAMGWYRQAPGKERELVAAISRSGTSTRYADSVKGRFTISRDNAKNTVYLLMNSLKPEDTAVYYCAARWYVFFRKYDYWGQGTQVTVSS	high polyreactivity
QVQLVESGGGLVQAGGSLRLSCAASGGTFVYNAMGWNRQAPGKERELVAAISRSGSRTYYADSVKGRFTISRDNAKNTVYLQMNSLKPEDTAVYYCAARGYYPEYNHWGQGSQVTVSS	high polyreactivity
QVQLVESGGGLDQAGGSLRLSCAASGRTSKTYAMGWYRQAPGKERELVATIDRSGDGTYYADSVKGRFTISRDNAKNTVYLQMNSLKPEDTAVYYCNAVTSSFYNRDSDYWGQGTQVSVSS	high polyreactivity

Sequence	polyreactivity (PSR sort gate)
QVQLVESGGGLVQAGGSLRLSCAASVRIFGYARGWYRQAPGKERELVAAITSSGGRTYYADSVKGLFTISRDNAKNTVYLQMNSLKPEDTAVYYCAKDASVSYSTNFRYYYWGQGTQVTVSS	high polyreactivity
QVQLVESGGGLVQAGRSLRLSCAASGITLYNYAMGWYRQAPGKERELVAAISLSGGRTYYADSVKGRFTISRDNAKNTVYLQMYSLKPEDTAVYYCAADWLNSDPYNYWGQGTQVTVSS	low polyreactivity
QVQLVESWGGLVQAGGSLRLSCAASGITFTVYAMGWYRQAPGKEREFVAAISSSGSTTYAVSVKGRLTFSRDNAKNTVYLQMNSLKPEDTAVYYCAAEGYYRFSTAYFRRKYEYCGQGTQVTVSS	low polyreactivity
QVQLVKSGGGLVQAGGSLRLSCAASGSIFGYNTKGWYRQAPGKERELVATITYRGGSTYYADSVKGRFTISRDNAKNTVYLQMNRLKPEDTAVYYCARRVTRYPDTTWVSAGDYWGQGTQVTVSS	high polyreactivity
QVQLVESGGGLVQAGGSLRLSCAASGFTFWRYAMGWYRQAPGKERELVAAISYSGGSTYYADSVKGRFTISRDYAKNTVYLQMNSLKPEDTAVYYCNAETGYGVYRTKYGYWGQGTQVTVSS	high polyreactivity
QVQLLESGGRLVQAGGSLRLSCMASGSILGDRMSWYRQAPGKEHELVATIYDGGITYYADSMKGRFTISRDNAKNTVYLQMNSLRPEDTAVYYCGASFEGYRYHVYCGQGTQVTVSS	low polyreactivity
QVQLVESGGGLVQAGGSLRLTCAASGRTFGINAMGWYRQAPGKERELVAAIDSIDGTTYYADSVKGHFTISRDNAKNTVYLPMNRLKPAATAVYYCAAEFISSYDYWGQGTQVTVSS	high polyreactivity
QVQLVESGGGLVQAGGSLRLSCAASGFIFGKYAMGWYRQAPGKERELVAAITSDGRTYYADSVKGRFTISRDNAKNTVYLEMNSLKPEDTAVYYCAVDYYWYWYSGYDDYWGQGTQVTVSS	high polyreactivity
QVQLVESGGGLVQAGGSLRLSCAASGSIFRYYAMGAYRQAPGKARELVAAISIRGGRTYYADSVKGRFTISRDNAKNTVYLQMNSLKPEDTAVYYCATAFGFTAKYYYWGQGTQVTVSS	high polyreactivity
QVQLVESGGGLVQAGGSLRLSCAASGRIFYFYAMGWYRQAPGKERELVASISSGSSTNYADSVKGRFTISRDNAKNTVYLQMNSLKPEDTAVYYCAAQPWHGSRARSYYWGQGTQVTVSS	high polyreactivity
QVQLVESGGGLVQAGGSLRLSCAASGIIFGFNTMGWYRQAPGKERELVAAINGSDGSTYADSVKGRFTISRDNAKNTVYLLMNSLKPEDTAVYYCAARYGSRKEYTYADMDYWGQGTQVTVSS	low polyreactivity
QVQLVESGGGLVQAGGSLRLSCAASGNIFAIYAMGWYIQAPGKEREFVAAIDWSVASTYYADSVKGRFTISRDNAKNTVYLQMNSLKPEDTAVYYCAAELYGLKYAYYLSYDYWGQGTQVTVSS	high polyreactivity
QVQLVESGGGLVQAGGSLRLSCAASGFTFARYTMGWSRQAPGKEREFVAAISWSGGRTYYADSVKGRFTISRDNAKNTVYLQMNSLKPEDTAVYYCAAEYWGVYRGFVSSFDYWGQGTQVTVSS	high polyreactivity
QVQLVESGGGLVHAGGSLRLSCAASGSIFYSNVMGWYRQAPGKERELVAAITRGGGTNYADSVKGRFTISRDNAKNTVYLQMNSLKPEDTAVYYCNRDPQKYRWIPRYDYWGQGTQVTVSS	low polyreactivity
QVQLVESGGGLVQAGGSLRLSCAASGFIFRWYAMGWYRQAPGKERELVATITGGGSTYYADSVKGRFTISRDNAKNTVYLQMNSLKPEDTAVYYCNARQIWKYSVRDDYWGQGTQVTVSS	high polyreactivity
QVQLVESGGGLVQAGGSLRLICAASGSIFSSYAMGWYRQAPGTGRELVASISRRGGSTYYADSVKGRFTISRDNAKNTVYLQMNSLKPEDTAVYYCNASGGPYRYYYWGQGTQVTVSS	low polyreactivity
QVQLVESGGGLVQAGGSLRLSCAASGFTLVLNAMGWYRQAPGKERELVAAIRRSAGSTYYADSVKGRFTISRDNAKNTVYLQMNSLKPEDTAVYYCAAGFLWAKYAYGHWGQGTQVTVSS	low polyreactivity
QVQLVESGGGLVQAGGSLRLSCAASGRTFVTNAMGWYRQAPGKERELVAAISSSGGSTYYADSVKGRFTISRDKAKNTVYLQMNSLKPEDTAVYYCAVGGQTKGQYDYWGQGTQVTVSS	low polyreactivity
QVQLVESGGGLVQAGGSLRLSCAASGRIFYWNAMGWYRQAPGKEREFVAAISWSGGSTYADSVKGRFTISRDNAKNTVYLQMNSLKPEDTAVYYCATRVYRSFRAYDYWGQGTQVTVSS	high polyreactivity
QVQLEESGGGLVQAGGRLRLSCAASGRIYTKYAMGWYRQAPGKERELVAAISGSGGNTYYADSVKGRFTISRDNAKNTVYLQMNSLKPEDTAVYYCNRAKNAYLMDYWGQGTQVTVSS	high polyreactivity
QVQLVESGGGLVQAGGSLRLSCAASGRIFPSNTMGWYRQAPGKERELVADISFGGGSTYYADSVKGRFTISRDNAKNTVYLQMNSLKPEDTAVYYCNADFGFGYVSLLYEYWGQGTQVTVSS	low polyreactivity
